Assay: yeast display, Sf9 membrane polyspecificity reagent, FACS + sequencing; frameworks hold sequencing errors
Outline: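 Nanobodies came from a synthetic yeast display library in Saccharomyces cerevisiae BJ5465, induced with galactose for 36–48 hours and stained for 1 hour at 4 °C with 10% biotinylated, detergent-solubilized Sf9 membrane reagent. Cells were enriched on streptavidin microbeads and then FACS-sorted, with low and high (top ~1%) gates set on anti-HA fluorescence for expression and streptavidin fluorescence for reagent binding. Each polyreactivity label reflects the gate a clone came from. Genes were amplified by colony PCR, sequenced by MiSeq 2 × 250 and filtered by CDR length.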

## QVQLVESGGGLVQAGGSLRLSCAASGSTFRYYAMGGSRQEPGKESELVAVISTSGNTYYADSVKGRFTISRDNAKNSVYLQMNSLKPEDTAVYYCAARGVGGQISQEYDYWGQGTQVTVSS
  polyreactivity (PSR sort gate): low polyreactivity

## QVQLVESGGGLVQAGGSLRLSCAASGSTFRYYAMGWYRKAPGKERELVAAITSSGGSTYYADSVKGRFTISRDNAKNTVYLQMNSLKPEDTAVYYCAVAVKNWVKLNYWGQGTQVTVSS
  polyreactivity (PSR sort gate): high polyreactivity

## QVQLVESGGGLVQAGGSLRLSCAASGSTFRYYAMGWYRQAPGKERELVAAISGSGGRTYYADSVKGRFTISRDNAKNTVYLQMNSLKPEDTAVYYCITRGRRTDYDYWGQGNQVTVSS
  polyreactivity (PSR sort gate): high polyreactivity

## QVQLVESGGGLVQAGGSLRLSCAASGSTFRYYAMGWYRQAPGKERELVAAISGSGGRTYYADSVKGRFTISRDNAKNTVYLQMNSLKPEDTAVYYCNTRGRRTDYDYWGQGTQVTVSS
  polyreactivity (PSR sort gate): high polyreactivity

## QVQLVESGGGLVQAGGSLRLSCAASGSTFRYYAMGWYRQAPGKERELVAAISSSGGSTYYADSVKGRFTISRDNAKNTVYLQMNSLKPEDTAVYYCAARHYSYRVEYDYWGQGTQVTVSS
  polyreactivity (PSR sort gate): high polyreactivity

## QVQLVESGGGLVQAGGSLRLSCAASGSTFRYYAMGWYRQAPGKERELVAAITWGGGNTYYADSVKGRFTISRDNAKNTVYLQMNSLKPEDTAVYYCNKVQSHWLDSWGQGTQVTVSS
  polyreactivity (PSR sort gate): low polyreactivity

## QVQLVESGGGLVQAGGSLRLSCAASGSTFRYYAMGWYRQAPGKERELVAGITNGGRTNYADSVQGRFTISRDNAKNTVYLQMHSLKPEDTAVYYCAADLAWRRIGYNYWGQGTQVTVSS
  polyreactivity (PSR sort gate): high polyreactivity

## QVQLVESGGGLVQAGGSLRLSCAASGSTFRYYAMGWYRQAPGKERELVASISSGGSTNYADSVKGRFTISRDNAKNTVYLQMNSLKPEDTAVYYCNADSWTVNRRYYYYRYEYWGQGTQVTVSS
  polyreactivity (PSR sort gate): low polyreactivity

## QVQLVESGGGLVQAGGSLRLSCAASGSTFRYYAMGWYRQAPGKESELVAAITSSGTSTYYADSVKGRFTISRDNAKNTVYLQMNSLKPEDTAVYYCAAPPVYKWVSSRYDYWGQGTQVTVSS
  polyreactivity (PSR sort gate): low polyreactivity

## QVQLVESGGGLVQAGGSLRLSCAASGSTFRYYAMGWYRQARGKERELVAAITSSGGRTYYADSVKGRFTISRDNAKNTVYLQMNSLKPEDTAVYYCAAYAYYHTGDDYWGQGTQVTVSS
  polyreactivity (PSR sort gate): high polyreactivity

## QVQLVESGGGLVQAGGSLRLSCAASGSTFRYYARGWYRPAPGKERELVAAITRSGGSTYYADSVKGRFTISRDNAKNTVYLQMNSLKPEDTAVYYCAARWAYPHKTYGTEQTEYDYWGQGTQVTVSS
  polyreactivity (PSR sort gate): high polyreactivity

## QVQLVESGGGLVQAGGSLRLSCAASGSTFRYYTMGWYRQAPGKERELVADITIGGSTYYADSVKGRFTISRDNSKNSVYLQMYSLKPEDTAVYYCAARSTGGRIFATGVAYAYWGQGTQVTVSS
  polyreactivity (PSR sort gate): low polyreactivity

## QVQLVESGGGLVQAGGSLRLSCAASGSTFRYYVMGWYRQAPWKERELVAGITKSGGNTYYADSVKGRFTISRDNAKNTVYLQMNSLKPEDTAVYYCAARGLWTRGYYYWGQGTQVTVSS
  polyreactivity (PSR sort gate): high polyreactivity

## QVQLVESGGGLVQAGGSLRLSCAASGSTFRYYVMGWYRTAPGKERDLVAVISGSGGYTYYADSVKGRFTISRDNAKNTVYLQMNSLKPEDTAVYYCAAARKFIPGRGRTYDSWGQGTQVTVSS
  polyreactivity (PSR sort gate): high polyreactivity

## QVQLVESGGGLVQAGGSLRLSCAASGSTFSANAMGWYRPAPGKERELVAAISRSGTRTYYADSVKGRFTISRDNAKNTVYLQMNSLKPEDTAVYYCAAYVYQYGYDYWGQGTQVTVSS
  polyreactivity (PSR sort gate): high polyreactivity

## QVQLVESGGGLVQAGGSLRLSCAASGSTFSANTMGWYRQAPGKERELVAGITNTGDTYYADSVKGRFTISRDNAKNTVYFQMNSLKPEDTAVYYCAADSWRRTDGAYWSTVYYWGQGTQVTVSS
  polyreactivity (PSR sort gate): low polyreactivity

## QVQLVESGGGLVQAGGSLRLSCAASGSTFSAYGMGWYRQAPGKERELVARISWNGGSTYYADSVKGRFTISRDNAKNTVYLQMNSLKPEDTAVYYCNTELVGHPDWLSWRYYYWGQGTQVTVSS
  polyreactivity (PSR sort gate): low polyreactivity

## QVQLVESGGGLVQAGGSLRLSCAASGSTFSDYAMGWYRQATGKERELVAAISKRGGSTYYADSVKGRFTISRDNAKNTVFLQMNSQKPEDTAVYYCNKESLYREFDYWGQGTQVTVSS
  polyreactivity (PSR sort gate): low polyreactivity

## QVQLVESGGGLVQAGGSLRLSCAASGSTFSDYTMGWYRQAPGKERELVAAITTIGGSTYYADSVKGRFTISRDNAKNTVYLQMNSLKPEDTAVYYCAAYYYYPFEYYYWGQGTQVTVSS
  polyreactivity (PSR sort gate): low polyreactivity

## QVQLVESGGGLVQAGGSLRLSCAASGSTFSDYVMGWYRQAPGKEREFVAAISWTGGITYYADSVKGRFTISRDNAKNTVYLQMNSLKPEDTAVYYCAAKRKYYGNGYWGQGTQVTVSS
  polyreactivity (PSR sort gate): high polyreactivity

## QVQLVESGGGLVQAGGSLRLSCAASGSTFSEYAMGWYRQAPGKERELVASITWSDDSTYYADSVKGRFTISRDNAKITVYLQMNSLKPEDSAVYYCAVRTGRRWWKFDYWGQGTQVTVSS
  polyreactivity (PSR sort gate): low polyreactivity

## QVQLVESGGGLVQAGGSLRLSCAASGSTFSFYAMGWYRQAPGKERELVAAISRSGGSTFYADSVKGRFTISRDNAKNTFYLQMNSLKAEDTAVYYCAAEYAYVPGWYEYWGQGTQVTVSS
  polyreactivity (PSR sort gate): high polyreactivity

## QVQLVESGGGLVQAGGSLRLSCAASGSTFSFYAMGWYRQAPGKERELVADITSGGSTYYADSVKGRFTISRDNAKNTVYLQMNSLKPEDTAVYYCAKADYGGDYYYQSGGLYYYWGQGTQVTVSS
  polyreactivity (PSR sort gate): low polyreactivity

## QVQLVESGGGLVQAGGSLRLSCAASGSTFSFYDMGWSRQAPGKERELVAAITGSGGTTYYADSVQGRFTISRDNAKNTVYFQMNSLKPEDTAVYFCAADSLESYPDYEYDFWGQGTQVTVSS
  polyreactivity (PSR sort gate): low polyreactivity

## QVQLVESGGGLVQAGGSLRLSCAASGSTFSFYDMGWYRQAPGKERELVAAITGSGGTTYYADSVKGRFTISRDNAKNTVYLQMNSLKPEDTAVYYCAADSLESYPDYEYDYWGQGTQVTVSS
  polyreactivity (PSR sort gate): low polyreactivity

## QVQLVESGGGLVQAGGSLRLSCAASGSTFSGNAMGWYRQAPGKERELVARIRWSTGSTYYADSVKGRFTISRDNAKNTVYLQMNSLKPEDTAVYYCNARGTPWRYGGDYWGQGTQVTVSS
  polyreactivity (PSR sort gate): low polyreactivity

## QVQLVESGGGLVQAGGSLRLSCAASGSTFSGNTMGWYRQAPGKERELVAAISRGGTRTNYADSVKGRFTISRDNAKNTVYLQMNSLKPEDTAVYYCAAGGSWGQNGYWGQGSQVTVSS
  polyreactivity (PSR sort gate): high polyreactivity

## QVQLVESGGGLVQAGGSLRLSCAASGSTFSGSVMGWDRPAPGKERELVAAISNRGGRTYYADSVKGRFTISRDNAKNTVYLQMNSLKPEDTAVYYCAARGVVDAGRTNRPYDYWGQGTQVTVSS
  polyreactivity (PSR sort gate): low polyreactivity

## QVQLVESGGGLVQAGGSLRLSCAASGSTFSGYAMGWYRQAPGKERELVAAISSSGGGTYYADSVKGRFTISRDNAKNTDYLQMNSLKPEDTAVYYCAARVGYRYRKGRYDYWGKGTQVTVSS
  polyreactivity (PSR sort gate): high polyreactivity

## QVQLVESGGGLVQAGGSLRLSCAASGSTFSGYAMGWYRQAPGKERELVAAITSSGGRTYYADSVKGRFTISRDNAKNTVYLQMNSLKPEDTAVYYCAALYYHEYDYWGQGTQVTVSS
  polyreactivity (PSR sort gate): low polyreactivity

## QVQLVESGGGLVQAGGSLRLSCAASGSTFSGYVMGWYRQAPGKERELVAAINGGGGTTYYADSVKGRFTISRDNAKNTVYLQMNSLKPEDTAVYYCAKRSYVTYPPYDYWGQGTQVTVSS
  polyreactivity (PSR sort gate): high polyreactivity

## QVQLVESGGGLVQAGGSLRLSCAASGSTFSHNAMGWYREATGKERELVAAITAGGITYYADSVKGRFTISRDNAKNTVYLQMNSLKPEETAVYYCAGDFWPSGRGVAFDYWGQGTQVTVSS
  polyreactivity (PSR sort gate): low polyreactivity

## QVQLVESGGGLVQAGGSLRLSCAASGSTFSHYAMGLYRQAPGKERALVAAISSGANTYYADSVKGRFTISRDNAKNTVYLLMNSLKPEDTAVYYCAADYYLAYIFPYDYWGQGSQVTVSS
  polyreactivity (PSR sort gate): low polyreactivity

## QVQLVESGGGLVQAGGSLRLSCAASGSTFSINAMGWYRQAPGIERELVAAISRSGGSTYYADSVKGRFTISRDNAKNTVYLQMNSLKPEDTAVYYCAADSRYDYEYWGQGTQVTVSS
  polyreactivity (PSR sort gate): high polyreactivity

## QVQLVESGGGLVQAGGSLRLSCAASGSTFSIYAMGWYRQAPGKERELVAAITRRSGSTYYADSVKGRITISRDNAKNTVSLQMKSLKPEDTAVYYCAADTWRTDYTSSYYKNRDSWGQGTQVTVSS
  polyreactivity (PSR sort gate): high polyreactivity

## QVQLVESGGGLVQAGGSLRLSCAASGSTFSKNTMGWYRKAPGKERELVAAITSGGSTYYADSVKGRFTISRDNAKNTVYLQMNSLKPEDTAVYYCAAGYELYYYIYKMDYWGQGTQVTVSS
  polyreactivity (PSR sort gate): high polyreactivity

## QVQLVESGGGLVQAGGSLRLSCAASGSTFSKYAMGWYRQAPGKERELVAAISSRGGSTYYADSVKGRFTISRDNAKNTVYLQMNSLKPEDTAVYYCATYYVYKLYYWGQGTQVTVSS
  polyreactivity (PSR sort gate): high polyreactivity

## QVQLVESGGGLVQAGGSLRLSCAASGSTFSKYFMGWYSQAPGKERELVAAISGGDRTYYADSVKGRFTISRDNAKNTVYLQMNSLKTEVTAVYDCAAEVLKTRWSYDYWGQGTQVTVSS
  polyreactivity (PSR sort gate): high polyreactivity

## QVQLVESGGGLVQAGGSLRLSCAASGSTFSLYAMGWYRQAPGIERELVAAIRSSGSTKYADSVKGRFTISRDNAKNTVYLQINSLKPEETAVYYCAAVSVTRADGRSGYEYWGQGTQVTVSS
  polyreactivity (PSR sort gate): low polyreactivity

## QVQLVESGGGLVQAGGSLRLSCAASGSTFSLYAMGWYRQAPGKERELVAAISSGGRTYYADSVKGRFTISRDNAKNTVYLQMNSLKPEVTAVYYCAVYVAYLYSYYYWGQGTQVTVSS
  polyreactivity (PSR sort gate): low polyreactivity

## QVQLVESGGGLVQAGGSLRLSCAASGSTFSLYAMGWYRQAPGKERELVARISYTDGSTYYADSVKGRFTISRDNAKNTVYLPMNSLKPEDTAVYYCAADAWYSYTLEDSWGQGTQVTVSS
  polyreactivity (PSR sort gate): low polyreactivity

## QVQLVESGGGLVQAGGSLRLSCAASGSTFSNYAMGWYRQAPGKDRELVAGIDWSGGSTYYADSVKGRFTISRDNAKNTVYLQMNSLKPEDTAVYYSAKRVWYHGRKLRGYYWGQGTQVTVSS
  polyreactivity (PSR sort gate): low polyreactivity

## QVQLVESGGGLVQAGGSLRLSCAASGSTFSPNAMGWSRQAPGKERELVAAITYRGANTYYADSVKGRFTISRDNAKNTVYLQMNSLKPEDTAVYYCAAEYAYHHVGFGYWGQGTQVTVSS
  polyreactivity (PSR sort gate): low polyreactivity

— the nanobody polyreactivity screen of Harvey et al. (2022)
